According to PMC4992311, “The MarR-like protein PchR (YvmB) regulates expression of genes involved in pulcherriminic acid biosynthesis and in the initiation of sporulation in Bacillus subtilis”:

How the values were obtained:
[1] = target: His-tagged YvmB protein (MarR-like regulator YvmB, renamed PchR) (B. subtilis); experiment: SEC; purified YvmB^His-tag fractionated on a Superdex 200 gel-filtration column; major peak with an apparent molecular mass compared with the 19.2 kDa polypeptide; no effector added
[2] = target: T1, YvmB-His6 (PchR) (Bacillus subtilis (BSB1, trp+ 168 derivative?)) (UniProt P40762); experiment: EMSA; details: apparent Kd; EMSA: 1x = 20 mM Tris pH 8, 100 mM KCl, 0.5 mM DTT, 5 mM MgCl2, 0.05 mg/ml BSA, 0.05 mg/ml poly(dIdC) (from 5x buffer); 50 ng Cy5 DNA in 20 uL; 20 min at 30 C …
T1 sequence: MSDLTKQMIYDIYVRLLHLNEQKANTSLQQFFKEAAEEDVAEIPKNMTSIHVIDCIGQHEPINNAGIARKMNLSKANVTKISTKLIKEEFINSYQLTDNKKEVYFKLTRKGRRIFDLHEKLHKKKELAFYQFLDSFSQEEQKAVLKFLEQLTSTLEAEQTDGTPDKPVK

YvmB-His6 (PchR) [3] = target: T2, YvmB-His6 (PchR) (Bacillus subtilis (BSB1, trp+ 168 …, UniProt P40762 1-169)); experiment: EMSA; two complexes; EMSA: 1x = 20 mM Tris pH 8, 100 mM KCl, 0.5 mM DTT, 5 mM MgCl2, 0.05 mg/ml BSA, 0.05 mg/ml poly(dIdC) (from 5x buffer); 50 ng Cy5 DNA in 20 uL; 20 min at 30 C; details: protein: recombinant; tags: C-terminal His6; chain copies: 2; label: 5' Cy5
T2 sequence: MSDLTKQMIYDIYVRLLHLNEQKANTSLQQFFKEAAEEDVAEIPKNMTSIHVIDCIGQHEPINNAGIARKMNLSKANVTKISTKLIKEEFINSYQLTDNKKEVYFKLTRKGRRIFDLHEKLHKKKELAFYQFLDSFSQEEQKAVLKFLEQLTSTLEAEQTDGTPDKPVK

YvmB-His6 (PchR) [4] = target: T2, YvmB-His6 (PchR); experiment: EMSA; one complex; apparent Kd; EMSA: 1x = 20 mM Tris pH 8, 100 mM KCl, 0.5 mM DTT, 5 mM MgCl2, 0.05 mg/ml BSA, 0.05 mg/ml poly(dIdC) (from 5x buffer); 50 ng Cy5 DNA in 20 uL; 20 min at 30 C; details: protein: recombinant; tags: C-terminal His6; chain copies: 2; label: 5' Cy5

## His-tagged YvmB protein (MarR-like regulator YvmB, renamed PchR) (natural protein)
[1]
  stoichiometry N: 2

## P-yisI probe
[2]
  Kd: 2.5 nM

B1: P2 probe (yvmB-yvmC intergenic, palindrome II) (dsDNA)
DNA 1: CCAACAATTGACAACGAAAACAAGAAAAGATAAAATAAAATTGTTCACCAGTAAACGATTTGTTTTATTGTTTCATCGTAAACTATTATTCCTAAGAAAGAAGGTAGCCT
DNA 2: AGGCTACCTTCTTTCTTAGGAATAATAGTTTACGATGAAACAATAAAACAAATCGTTTACTGGTGAACAATTTTATTTTATCTTTTCTTGTTTTCGTTGTCAATTGTTGG
YvmB-His6 (PchR) [3]
  binding result: binds

B2: P1 probe (yvmB-yvmC intergenic, palindrome I) (dsDNA)
DNA 1: TTCCAAATGTTTTTTAAGATTTTAATAATCATTTTCAATACCCATATCATGATAAATGTTTACTAGTAAACATTAGTCATTTTATCCCTTTTCCTTCCAAACGTCAATAT
DNA 2: ATATTGACGTTTGGAAGGAAAAGGGATAAAATGACTAATGTTTACTAGTAAACATTTATCATGATATGGGTATTGAAAATGATTATTAAAATCTTAAAAAACATTTGGAA
YvmB-His6 (PchR) [4]
  Kd: 5 nM
